This is an account of results in the Human Domainome abundance scans (Beltran et al. 2025).

± gives the uncertainty stated by the source.

First the molecules themselves.
B1: Friend leukemia integration 1 transcription factor, residues 116 to 197; numbered along this chain, Q01543 (parent)
chain: NMTTNERRVIVPADPTLWTQEHVRQWLEWAIKEYSLMEIDTSFFQNMDGKELCKMNKEDFLRATTLYNTEVLLSHLSYLRES

This series covers variants of B1. In words: abundance fitness (aPCA) (normalised: wild type 0, dead -1); higher = more abundant; growth selection in yeast, the domain comes from the species named. The settings on record: Homo sapiens.
With NMTTNERRVIVPADPTLWTQEHVRQWLEWAIKEYSLMEIDTSFFQNMDGKHLCKMNKEDFLRATTLYNTEVLLSHLSYLRES, the abundance fitness stood at 0.068 ± 0.12.

On to NMTTNERRVIVPADPTLWTQEHVRQWLEWAIKEYSLMEIDTSFFQNMDGKGLCKMNKEDFLRATTLYNTEVLLSHLSYLRES, for which the abundance fitness was -0.058 ± 0.068.

NMTTNERRVIVPADPTLWTQEHVRQWLEWAIKEYSLMEIDTSFFQNMDGKQLCKMNKEDFLRATTLYNTEVLLSHLSYLRES: the abundance fitness is 0.03 ± 0.08.

NMTTNERRVIVPADPTLWTQEHVRQWLEWAIKEYSLMEIDTSFFQNMDGKYLCKMNKEDFLRATTLYNTEVLLSHLSYLRES: the abundance fitness was -0.679 ± 0.33.

Consider NMTTNERRVIVPADPTLWTQEHVRQWLEWAIKEYSLMEIDTSFFQNMDGKDLCKMNKEDFLRATTLYNTEVLLSHLSYLRES, for which the abundance fitness was -0.332 ± 0.28.

For NMTTNERRVIVPADPTLWTQEHVRQWLEWAIKEYSLMEIDTSFFQNMDGKLLCKMNKEDFLRATTLYNTEVLLSHLSYLRES, the abundance fitness was -0.135 ± 0.051.

NMTTNERRVIVPADPTLWTQEHVRQWLEWAIKEYSLMEIDTSFFQNMDGKFLCKMNKEDFLRATTLYNTEVLLSHLSYLRES: the abundance fitness is -0.243 ± 0.22.

Consider NMTTNERRVIVPADPTLWTQEHVRQWLEWAIKEYSLMEIDTSFFQNMDGKKLCKMNKEDFLRATTLYNTEVLLSHLSYLRES, for which the abundance fitness was -0.01 ± 0.094.

NMTTNERRVIVPADPTLWTQEHVRQWLEWAIKEYSLMEIDTSFFQNMDGKVLCKMNKEDFLRATTLYNTEVLLSHLSYLRES: the abundance fitness was -0.127 ± 0.078.

As to NMTTNERRVIVPADPTLWTQEHVRQWLEWAIKEYSLMEIDTSFFQNMDGKWLCKMNKEDFLRATTLYNTEVLLSHLSYLRES, the abundance fitness was -0.477 ± 0.08.

Regarding NMTTNERRVIVPADPTLWTQEHVRQWLEWAIKEYSLMEIDTSFFQNMDGKPLCKMNKEDFLRATTLYNTEVLLSHLSYLRES, the abundance fitness is -0.766 ± 0.17.

As for NMTTNERRVIVPADPTLWTQEHVRQWLEWAIKEYSLMEIDTSFFQNMDGKRLCKMNKEDFLRATTLYNTEVLLSHLSYLRES, the abundance fitness was -0.084 ± 0.065.

As to NMTTNERRVIVPADPTLWTQEHVRQWLEWAIKEYSLMEIDTSFFQNMDGKCLCKMNKEDFLRATTLYNTEVLLSHLSYLRES, the abundance fitness was -0.219 ± 0.18.

In the case of NMTTNERRVIVPADPTLWTQEHVRQWLEWAIKEYSLMEIDTSFFQNMDGKTLCKMNKEDFLRATTLYNTEVLLSHLSYLRES, the abundance fitness turned out to be 0.034 ± 0.082.

As to NMTTNERRVIVPADPTLWTQEHVRQWLEWAIKEYSLMEIDTSFFQNMDGKILCKMNKEDFLRATTLYNTEVLLSHLSYLRES, the abundance fitness is -0.259 ± 0.23.

For the variant NMTTNERRVIVPADPTLWTQEHVRQWLEWAIKEYSLMEIDTSFFQNMDGKMLCKMNKEDFLRATTLYNTEVLLSHLSYLRES, the abundance fitness was -0.1 ± 0.11.

Take NMTTNERRVIVPADPTLWTQEHVRQWLEWAIKEYSLMEIDTSFFQNYDGKELCKMNKEDFLRATTLYNTEVLLSHLSYLRES: the abundance fitness stood at 0.092 ± 0.17.

On to NMTTNERRVIVPADPTLWTQEHVRQWLEWAIKEYSLMEIDTSFFQNVDGKELCKMNKEDFLRATTLYNTEVLLSHLSYLRES, for which the abundance fitness is -0.093 ± 0.072.

On to NMTTNERRVIVPADPTLWTQEHVRQWLEWAIKEYSLMEIDTSFFQNWDGKELCKMNKEDFLRATTLYNTEVLLSHLSYLRES, for which the abundance fitness was -0.417 ± 0.1.

Consider NMTTNERRVIVPADPTLWTQEHVRQWLEWAIKEYSLMEIDTSFFQNTDGKELCKMNKEDFLRATTLYNTEVLLSHLSYLRES, for which the abundance fitness was -0.344 ± 0.061.

With NMTTNERRVIVPADPTLWTQEHVRQWLEWAIKEYSLMEIDTSFFQNRDGKELCKMNKEDFLRATTLYNTEVLLSHLSYLRES, the abundance fitness was -0.239 ± 0.048.

As to NMTTNERRVIVPADPTLWTQEHVRQWLEWAIKEYSLMEIDTSFFQNPDGKELCKMNKEDFLRATTLYNTEVLLSHLSYLRES, the abundance fitness was -0.706 ± 0.19.

Take NMTTNERRVIVPADPTLWTQEHVRQWLEWAIKEYSLMEIDTSFFQNMQGKELCKMNKEDFLRATTLYNTEVLLSHLSYLRES: the abundance fitness was -0.205 ± 0.1.

For the variant NMTTNERRVIVPADPTLWTQEHVRQWLEWAIKEYSLMEIDTSFFQNMSGKELCKMNKEDFLRATTLYNTEVLLSHLSYLRES, the abundance fitness was -0.013 ± 0.074.

For NMTTNERRVIVPADPTLWTQEHVRQWLEWAIKEYSLMEIDTSFFQNMCGKELCKMNKEDFLRATTLYNTEVLLSHLSYLRES, the abundance fitness was -0.388 ± 0.17.

Take NMTTNERRVIVPADPTLWTQEHVRQWLEWAIKEYSLMEIDTSFFQNMIGKELCKMNKEDFLRATTLYNTEVLLSHLSYLRES: the abundance fitness is -0.391 ± 0.27.

With NMTTNERRVIVPADPTLWTQEHVRQWLEWAIKEYSLMEIDTSFFQNMEGKELCKMNKEDFLRATTLYNTEVLLSHLSYLRES, the abundance fitness is -0.222 ± 0.11.

For the variant NMTTNERRVIVPADPTLWTQEHVRQWLEWAIKEYSLMEIDTSFFQNMRGKELCKMNKEDFLRATTLYNTEVLLSHLSYLRES, the abundance fitness was -0.305 ± 0.082.

Take NMTTNERRVIVPADPTLWTQEHVRQWLEWAIKEYSLMEIDTSFFQNMAGKELCKMNKEDFLRATTLYNTEVLLSHLSYLRES: the abundance fitness was -0.118 ± 0.084.

NMTTNERRVIVPADPTLWTQEHVRQWLEWAIKEYSLMEIDTSFFQNMVGKELCKMNKEDFLRATTLYNTEVLLSHLSYLRES: the abundance fitness was 0.031 ± 0.08.

Consider NMTTNERRVIVPADPTLWTQEHVRQWLEWAIKEYSLMEIDTSFFQNMWGKELCKMNKEDFLRATTLYNTEVLLSHLSYLRES, for which the abundance fitness is -0.82 ± 0.21.

As to NMTTNERRVIVPADPTLWTQEHVRQWLEWAIKEYSLMEIDTSFFQNMMGKELCKMNKEDFLRATTLYNTEVLLSHLSYLRES, the abundance fitness was -0.464 ± 0.12.

Take NMTTNERRVIVPADPTLWTQEHVRQWLEWAIKEYSLMEIDTSFFQNMNGKELCKMNKEDFLRATTLYNTEVLLSHLSYLRES: the abundance fitness was -0.201 ± 0.25.
